Experimental data: the supplement of paper PMC11780869

System: Bacillus subtilis
Test: cleaved RNA product abundance (RNA/gDNA barcode ratio) relative to median wild-type variant (ratio to wild type); higher = more accumulation of the downstream cleavage product
Procedure, shortened: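 Sequencing of barcodes from gel-selected, reverse-transcribed cleaved RNA and from genomic DNA, with UMI collapsing, yielded a per-construct RNA:gDNA ratio. Scaled to the median construct with the unmutated site, this ratio is the cleaved product abundance. The barcoded reporters (truncated aprE or tetM mRNAs with mutagenized RNase Y cleavage-site windows) were integrated into the B. subtilis chromosome, and cultures grew in LB at 37°C from OD600 0.0003 to 0.3.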

[1] = experiment (reporter, strain, medium): exp 2b: truncated aprE reporter, strain BJT200, cleavage site: cggR-gapA (positions -7 to +36 mutated)
[2] = experiment (reporter, strain, medium): exp 4a: truncated aprE reporter, strain BJT201 with 2% xylose (RNase J1 expressed), cleavage site: cggR-gapA (positions -7 to +36 mutated)
[3] = experiment (reporter, strain, medium): exp 8a: truncated aprE reporter, strain BJT201 with 2% xylose (RNase J1 expressed), cleavage site: glnRA (positions -5 to +31 mutated)

Row | Sequence | cleaved RNA product abundance [1] | cleaved RNA product abundance [2] | cleaved RNA product abundance [3]
1 | ACAGACGAAGGAGCCGCAAAGAAGTTATTAAGAGATAAATAATCCCTCAATATAAATATCTCTCACTTATTTAAA | 0.0926 | 0.0932 | 
2 | CGACATGTCCCGCTTCTTTCATTAATCCGTTAGCAACTGTTTTCCTATATACATTCACCTTTTAAGAGGAGGAAT |  |  | 0.346
3 | ACAGACGAAGGAGCCGCAAAGAAGTCATTAAGGCATGAATAATCCCTCAATATAAATATCTCTCACTTATTTAAA |  | 0.102 | 
4 | CGACATGTCCCGCTTCTTTCATTACTCCGTTAGCAACTGTTTTGCTATATACAATTACCTTTTAAGAGGAGGAAT |  |  | 1.14
5 | ACAGACGAAGGAGCCGCAACGAAGTTATTAAGGGATAAATAATCCCTCAATATAAATATCTCTCACTTATTTAAA | 0.891 | 0.739 | 
6 | CGACATGTCCCGCTTCTTTCATTAATCCGTTAGCAACTGTTTTGCTATATACATTTAGCATTTAAGAGGAGGAAT |  |  | 0.755
7 | ACAGACGAAGGAGCCGCAAAGAAGTTAATAGGGGATGAATAATCCCTCAATATAAATATCTCTCACTTATTTAAA |  | 0.292 | 
8 | ACAGACGAAGGAGCCGCAAAGAAGTTATTAAGGGAGGAATAATCCTTCAATATAAATATCTCTCACTTATTTAAA |  | 0.283 | 
9 | ACAGACGAAGGAGCCGCAAAGAAGTTATTAAGGGATGAATAATCCCTAAAGATAAATATCTCTCACTTATTTAAA | 0.259 |  | 
10 | ACAGACGAAGGAGCCGCAAAGAAGTTATTAAGGGATGAATAAACCCTCAGTATAAATATCTCTCACTTATTTAAA |  | 0.211 | 
11 | ACAGACGAAGGAGCCGCAAAGAAGTTATTAAGTGATGAATAATCCCTCAATATAACTATCTCTCACTTATTTAAA | 0.146 |  | 
12 | ACAGACGAAGGAGCCGCAAAGAAGTTATTATGGGATGAATAATCCCTCAATATCAATATCTCTCACTTATTTAAA |  | 0.0948 | 
13 | ACAGACGAAGGAGCCGCAAAGAAGTTATTAAGGGATGAATTATCCCTCACTATAAATATCTCTCACTTATTTAAA |  | 0.208 | 
14 | ACAGACGAAGGAGCCGCAAAGAAGTTATTAATGGATGAATAATCCCACAATATAAATATCTCTCACTTATTTAAA | 0.0949 | 0.156 | 
15 | ACAGACGAAGGAGCCGCAAAGAAGATATTAAGGGATGAATAATTCCTCAATATAAATATCTCTCACTTATTTAAA |  | 1.05 | 
16 | CGACATGTCCCGCTTCTTTCATTAATCCGTTAGAAACTGTTTTCCTATATACATTTACCTTTTAAGAGGAGGAAT |  |  | 0.317
17 | ACAGACGAAGGAGCCGCAAAGAAGTTATTAAGCGATGAATAATCCCGCAATATAAATATCTCTCACTTATTTAAA | 0.0603 | 0.0767 | 
18 | ACAGACGAAGGAGCCGCAAAGAAGTTATTAAGGGATGGATACTCCCTCAATATAAATATCTCTCACTTATTTAAA | 0.263 |  | 
19 | CGACATGTCCCGCTTCTTTCATTAATCAGTAAGCAACTGTTTTGCTATATACATTTACCTTTTAAGAGGAGGAAT |  |  | 0.489
20 | CGACATGTCCCGCTTCTTTCATTAATCCGTTAGCAACTATTTTGCTATCTACATTTACCTTTTAAGAGGAGGAAT |  |  | 0.108
21 | CGACATGTCCCGCTTCTTTCATTAATCCGTTAGCAACTGTTTAGCAATATACATTTACCTTTTAAGAGGAGGAAT |  |  | 0.455

Row | Sequence | cleaved RNA product abundance [1] | cleaved RNA product abundance [2] | cleaved RNA product abundance [3]
22 | ACAGACGAAGGAGCCGCAAAGAAATTATTAAGGGATGAAAAATCCCTCAATATAAATATCTCTCACTTATTTAAA | 0.852 | 0.598 | 
23 | ACAGACGAAGGAGCCGCAAAGAAGTGATTAAGCGATGAATAATCCCTCAATATAAATATCTCTCACTTATTTAAA | 0.115 | 0.131 | 
24 | ACAGACGAAGGAGCCGCAAAGAAGTTATTAAGGGATGAATTATCACTCAATATAAATATCTCTCACTTATTTAAA |  | 0.178 | 
25 | ACAGACGAAGGAGCCGCAAATAAATAATTAAGGGATGAATAATCCCTCAATATAAATATCTCTCACTTATTTAAA |  | 0.336 | 
26 | CGACATGTCCCGCTTCTTTCATTAATACATTAGCGACTTTTTTGCTATATACACTTACCTTTTAAGAGGAGGAAT |  |  | 0.352
27 | CGACATGTCCCGCTTCTTTCATTAATCCGTTAGCAACTGTTTTGATATTTACATTTACCTTTTAAGAGGAGGAAT |  |  | 0.18
28 | ACAGACGAAGGAGCCGCTAACAAGTTATTAAAGGATGAATAATCCCTCAATATAAATATCTCTCACTTATTTAAA | 0.111 |  | 
29 | ACAGACGAAGGAGCCGCAAAGGAGTTATTAAGGGATGAATAATCCCTCAATAAAAATATCTCTCACTTATTTAAA | 0.165 |  | 
30 | ACAGACGAAGGAGCCGCAAGGAAGTTATTAATGGATGAATAATCCCTCAATATAAATATCTCTCACTTATTTAAA | 0.144 | 0.162 | 
31 | ACAGACGAAGGAGCCGCAAAGAAGTTATTAAGGGATGAAAAATCCCCCAATATAAATATCTCTCACTTATTTAAA |  | 0.184 | 
32 | ACAGACGAAGGAGCCGCAAAGAAGTTATTAAGGGATGAATAATCCCTCAACATACATATCTCTCACTTATTTAAA |  | 0.273 | 
33 | ACAGACGAAGGAGCCGCAAAGAAGTTATTAAGGGATGAATACTCTCTCAATATAAATATCTCTCACTTATTTAAA |  | 0.226 | 
34 | ACAGACGAAGGAGCCGCAAAGAAGTTATTAAGGGATGATTAATACCTCAATATAAATATCTCTCACTTATTTAAA |  | 0.134 | 
35 | CGACATGTCCCGCTTCTTTCATTAATGCGTTAACAACTGTTTTGCTATATACATTTACCTTTTAAGAGGAGGAAT |  |  | 0.228
36 | ACAGACGAAGGAGCCGCAAAGAAGTTATTAAGGGATGAGTAATCCTTCAATATAAATATCTCTCACTTATTTAAA |  | 0.346 | 
37 | ACAGACGAAGGAGCCGCAAAGAAGTTACTAAGGGATGAATAATCCCTAAATATAAATATCTCTCACTTATTTAAA |  | 0.253 | 
38 | CGACATGTCCCGCTTCTTTCATTACTCCGTTAGCAACTGTTTTGCTATATACTTTTACCTTTTAAGAGGAGGAAT |  |  | 0.592
39 | CGACATGTCCCGCTTCTTTCATTATCCGTTAGCAACTGTTTTGCTATATACATTTACCTTTTAAGAGGAGGAATT |  |  | 0.941
40 | ACAGACGAAGGAGCCGCAAAGAAGTGATTTAGGGATGAATAATCCCTCAATATAAATATCTCTCACTTATTTAAA |  | 0.386 | 
41 | ACAGACGAAGGAGCCGCAAAGAAGTTATTAAGGGTCGAATAATCCCTCAATATAAATATCTCTCACTTATTTAAA |  | 0.211 | 
42 | ACAGACGAAGGAGCCGCAAAGATGTTAATAAGGGATGAATAATCCCTCAATATAAATATCTCTCACTTATTTAAA | 0.237 | 0.311 | 

Row | Sequence | cleaved RNA product abundance [1] | cleaved RNA product abundance [2] | cleaved RNA product abundance [3]
43 | ACAGACGAAGGAGCCGCAAAGAAGTTATTAAGGGATGAATAATCACTCAACATAAATATCTCTCACTTATTTAAA |  | 0.123 | 
44 | ACAGACGAAGGAGCCGCAAAGACGTTATTAAGGGATGAATAATCCATCAATATAAATATCTCTCACTTATTTAAA | 0.156 | 0.312 | 
45 | ACAGACGAAGGAGCCGCAAAAAAGTTATTAAGGGATGACTAATCCCTCAATATAAATATCTCTCACTTATTTAAA | 0.504 | 0.61 | 
46 | CGACATGTCCCGCTTCTTTCATTAATCCGTTAGCAACTGTTTTGCGATATACATTTACCATTTAAGAGGAGGAAT |  |  | 0.637
47 | CGACATGTCCCGCTTCTTTCATTAATTCATTAGCAACTGTTTTGCTATATACATTTACCTTTTAAGAGGAGGAAT |  |  | 0.776
48 | ACAGACGAAGGAGCCGCAAAGAAGCTATTAAGGGATAAATAATCCCTCAATATAAATATCTCTCACTTATTTAAA | 0.479 |  | 
49 | ACAGACGAAGGAGCCGCAAAGAAGTTATTAAGGGATGAATACTCCCTCAAAATAAATATCTCTCACTTATTTAAA | 0.176 | 0.194 | 
50 | CGACATGTCCCGCTTCTTTCATTAATCCGTAAGCAACTGTATTGCTATATACATTTACCTTTTAAGAGGAGGAAT |  |  | 0.367
51 | ACAGACGAAGGAGCCGCAAAGAAGTTATTAAGTGATGAATAAACCCTCAATATAAATATCTCTCACTTATTTAAA | 0.113 | 0.0945 | 
52 | ACAGACGAAGGAGCCGCAAAGAAGTTATTAAGGGAGGAATAATTCCTCAATATAAATATCTCTCACTTATTTAAA |  | 0.0856 | 
53 | ACAGACGAAGGAGCCGCAAAGAAGTTATTAAGGGATGAATAATCCCTGAATATATATATCTCTCACTTATTTAAA | 0.477 | 0.598 | 
54 | ACAGACGAAGGAGCCGCAAAGGACTTATTAAGGGATGAATAATCCCTCAATATAAATATCTCTCACTTATTTAAA |  | 0.173 | 
55 | ACAGACGAAGGAGCCGCAAAGAAGTTATTTAGGGAAGAATAATCCCTCAATATAAATATCTCTCACTTATTTAAA |  | 0.572 | 
56 | ACAGACGAAGGAGCCGCAAGGAAGTTATAAAGGGATGAATAATCCCTCAATATAAATATCTCTCACTTATTTAAA |  | 0.578 | 
57 | CGACATGTCCCGCTTCTTTCATTAATCCGTTAACAACTGTTTTGATATATACATTTACCTTTTAAGAGGAGGAAT |  |  | 0.235
58 | CGACATGTCCCGCTTCTTTCATTATCCCGTTAGCAACTGTTTTGCTATATACATTTACCTTTTAAGAGGAGGAAT |  |  | 1.49
59 | ACAGACGAAGGAGCCGCAACGAAGTTATTAATGGATGAATAATCCCTCAATATAAATATCTCTCACTTATTTAAA |  | 0.141 | 
60 | CGACATGTCCCGCTTCTTTCATTAATCCTTTAGCAACAGTTTTGCTATATACATTTACCTTTTAAGAGGAGGAAT |  |  | 0.115
61 | ACAGACGAAGGAGCCGCAAATAAATTATTAAGGGATGAATAATCCCTCAATATAAATATCTCTCACTTATTTAAA | 0.807 | 0.801 | 
62 | CGACATGTCCCGCTTCTTTCATTAATCCGTTAGCAACTGTTTTGCTATATAGAATTACCTTTTAAGAGGAGGAAT |  |  | 1.14
